These are literature values, as cited in article PMC4887106.

In this data set the target is Histone H4K20me1/2 (Homo sapiens) (UniProt P62805).

A word on the Kd: it is the free concentration of one partner at which half of the binding sites on the other are occupied at equilibrium, for simple one-to-one binding. MBTD1 4xMBT (from UniProt Q05BQ5): the Kd was 10 µM.
